Experimental data from US20020137918A1.
Substitutions are numbered along the chain they refer to. In names and notes the source's numbering stands.

What was measured:
[1] = target: human IgG (human); test: method not given
[2] = target: human κ-chain (human); test: method not given
[3] = target: human IgG (human); test: competitive ELISA at pH 8.0, PpL on the plate
[4] = target: human IgG (human); test: competitive ELISA at pH 8.0, against the Kd of PpL (112 nM)
[5] = target: human κ-chain (human); test: affinity chromatography, Y53F PpL coupled to agarose, human κ-chain eluted by rising pH
[6] = target: human κ-chain (human); test: affinity chromatography, Y53F PpL coupled to agarose, human κ-chain eluted by falling pH
[7] = target: human κ-chain (human); test: affinity chromatography, Y53F PpL coupled to agarose, human κ-chain eluted by rising KCl
[8] = target: human κ-chain (human); test: Kd at pH 8, method not stated; one Kd given for the mutation, ticked in PpL and Y64W PpL
[9] = target: human IgG (human); test: competitive ELISA, PpL on the plate, human IgG
[10] = target: human κ-chain (human); test: affinity chromatography, Y64W PpL coupled to agarose, human κ-chain eluted by rising pH
[11] = target: human κ-chain (human); test: tryptophan fluorescence, complex against the sum of the spectra of the single proteins
[12] = target: human κ-chain (human); test: affinity chromatography, Y64W PpL coupled to agarose, human κ-chain eluted by falling pH
[13] = target: human κ-chain (human); test: affinity chromatography, Y64W PpL coupled to agarose, human κ-chain eluted by rising KCl
[14] = target: human κ-chain (human); test: Kd at pH 8, method not stated; mutation ticked in PpL
[15] = target: human κ-chain (human); test: competitive fluorescence titration, PpL2Asn as competitor
[16] = target: human κ-chain (human); test: fluorescence titration of F39W into 0.75 µM kappa chain, 18 °C, pH 8
[17] = target: human IgG (human); test: competitive ELISA, Wt PpL immobilized, human IgG
[18] = target: human κ-chain (human); test: isothermal titration calorimetry, 800 µM L57H PpL into 40 µM kappa light chain, 25 °C, pH 8.0
[19] = target: human κ-chain (human); test: Kd at pH 8, method not stated; one Kd given for the mutation, ticked in Y64W PpL and F39W PpL
[20] = target: human κ-chain (human); test: Kd at pH 8, method not stated; mutation ticked in F39W PpL
[21] = target: human κ-chain (human); test: stopped flow fluorescence
[22] = target: human κ-chain (human); test: stopped flow fluorescence, equilibrium Kd
[23] = target: human κ-chain (human); test: stopped flow fluorescence, encounter complex
[24] = target: human κ-chain (human); test: Kd at pH 8, method not stated; mutation ticked in Y64W PpL
[25] = target: human IgG (human); test: competitive ELISA, human IgG
[26] = target: human IgG (human); test: competitive ELISA; told as 'previously determined for PpL'
[27] = target: human κ-chain (human); test: affinity chromatography, PpL coupled to agarose, human κ-chain eluted by rising pH
[28] = target: human κ-chain (human); test: affinity chromatography, PpL coupled to agarose, human κ-chain eluted by falling pH
[29] = target: human κ-chain (human); test: affinity chromatography, PpL coupled to agarose, human κ-chain eluted by rising KCl
[30] = target: human κ-chain (human); test: tryptophan fluorescence, complex against the sum of the single proteins

Molecule: Y53F PpL
- Kd [1]: 2000 nM
- fold reduction in affinity against PpL [2]: 27 fold
- Kd [3]: 3200 nM
- fold increase in Kd against PpL [4]: 25 fold
- elution condition, increased pH [5]: 9.6 pH
- elution condition, decreased pH [6]: 3.2 pH
- elution condition, increase KCl [7]: 0.75 M
- Kd [8]: 1700 nM

B1: Y64W PpL (protein)
chain: MNIKFAGKETPETPEEPKEEVTIKVNLIFADGKIQTAEFKGTFEEATAEAYRYADLLAKVNGEWTADLEDGGNHMNIKFAGK
- Kd [9]: 129 nM
- elution condition, increased pH [10]: 10.1 pH
- quench in fluorescence emission of the complex [11]: 9%
- elution condition, decreased pH [12]: 2.03 pH
- elution condition, increase KCl [13]: 0.96 M

B2: F39W PpL (protein)
chain: B1 chain with F39W, W64Y
- Kd [14]: 160 nM
- Kdapp in the presence of 5 µM PpL2Asn [15]: 310 nM
- Kd [16]: 161 nM

B3: F39H Y64W PpL (protein)
chain: B1 chain with F39H
- Kd [8]: 1000 nM

B4: L57H PpL (protein)
chain: B1 chain with L57H, W64Y
- Kd [17]: 4200 nM
- Kd [8]: 6000 nM
- Kd [18]: 5200 nM

B5: Q35E F39W PpL (protein)
chain: B1 chain with Q35E, F39W, W64Y
- Kd [19]: 300 nM

B6: N76D F39W PpL (protein)
chain: B1 chain with F39W, W64Y, N76D
- Kd [20]: 400 nM

B7: Q35E Y64W PpL (protein)
chain: B1 chain with Q35E
- Kd [19]: 300 nM

B8: L57H Y64W PpL (protein)
chain: B1 chain with L57H
- fold of equilibrium Kd against Y64W PpL [21]: 30 fold
- fold of pre-equilibrium Kd against Y64W PpL [21]: 2 fold
- Kd [22]: 5400 nM
- pre-equilibrium Kd [23]: 6800 nM
- Kd [8]: 6000 nM

B9: Y53H F39W PpL (protein)
chain: B1 chain with F39W, Y53H, W64Y
- Kd [20]: 500 nM

B10: L57D Y64W PpL (protein)
chain: B1 chain with L57D
- Kd [24]: 2000 nM

B11: PpL (protein)
chain: B1 chain with W64Y
- Kd [25]: 160 nM
- Kd [26]: 112 nM
- elution condition, increased pH [27]: 10.2 pH
- elution condition, decreased pH [28]: 1.96 pH
- elution condition, increase KCl [29]: 0.95 M

B12: Y53F Y64W PpL (protein)
chain: B1 chain with Y53F
- Kd [3]: 3320 nM
- increase in fluorescence signal of the complex [30]: 10%
- Kd [8]: 1700 nM

B13: F39H PpL (protein)
chain: B1 chain with F39H, W64Y
- Kd [8]: 1000 nM
